Experiments:
[1] = system: O=c1ccn([C@@H]2O[C@H](CO[P@@](=O)(O)O[P@@](=O)(O)O[C@H]3O[C@H](CO)[C@@H](O)[C@H](O)[C@H]3O)[C@@H](O)[C@H]2O)c(=O)[nH]1; assay: HPLC, Hanes-Woolf; type: biochemical, Diaporthe amygdali; conditions: 0.1 mM 9 (FC H aglycon), 50 mM MES pH 6.0, 30°C
[2] = system: CC(=O)SCCNC(=O)CCNC(=O)[C@H](O)C(C)(C)COP(=O)(O)OP(=O)(O)OC[C@H]1O[C@@H](n2cnc3c(N)ncnc32)[C@H](O)[C@@H]1OP(=O)(O)O; assay: HPLC, Hanes-Woolf; type: biochemical, Diaporthe amygdali; conditions: 203 µM 14 (dideacetyl-FC A), 50 mM Tris-HCl pH 8.5, 35°C

Substance	Km [1] [µM]	kcat [1] [S^−1]	Km [2] [µM]	kcat [2]
glycosyltransferase (Orf6) (Diaporthe amygdali)	520 ± 46	0.40±0.044	–	–
acetyltransferase-2 (Orf12) (Diaporthe amygdali)	–	–	63 ± 6.6	3.5×10^−3±0.17×10^−3 S^−1

From PMC3411640, “Molecular Breeding of a Fungus Producing a Precursor Diterpene Suitable for Semi-Synthesis by Dissection of the Biosynthetic Machinery” (PLoS ONE, 2012)
